Measurements taken from patent US20230151095A1 (published 2023).

Target: CD16 (UniProt P08637 17-208)
Sequence (P08637 17-208): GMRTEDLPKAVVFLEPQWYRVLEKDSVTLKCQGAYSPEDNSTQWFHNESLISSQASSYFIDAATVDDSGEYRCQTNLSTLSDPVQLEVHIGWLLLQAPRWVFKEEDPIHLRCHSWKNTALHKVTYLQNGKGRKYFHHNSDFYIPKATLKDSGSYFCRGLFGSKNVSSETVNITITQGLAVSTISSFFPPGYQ

Row | Kd [nM] | Binder
1 | 136 | XENP41025 (antibody) chain 1: EVQLLESGGGLVQPGGSLRLSCAVSGFSLSSYGVIWVRQAPGKGLEYVSWVSSGGSTNYASSVKGRFTISRDTSKNTVYLQMNSLRAEDTAVYFCARGATNSGTDIWGPGTLVTVSSASTKGPSVFPLAPSSKSTSGGTAALGCLVKDYFPEPVTVSWNSGALTSGVHTFPAVLQSSGLYSLSSVVTVPSSSLGTQTYICNVNHKPSDTKVDKKVEPKSCDKTHTCPPCPAPELLGGPSVFLFPPKPKDTLMISRTPEVTCVVVDVSHEDPEVKFNWYVDGVEVHNAKTKPREEEYNSTYRVVSVLTVLHQDWLNGKEYKCKVSNKALPAPIEKTISKAKGQPREPQVYTLPPSREEMTKNQVSLTCDVSGFYPSDIAVEWESDGQPENNYKTTPPVLDSDGSFFLYSKLTVDKSRWEQGDVFSCSVMHEALHNHYTQKSLSLSPGK chain 2: EVQLLESGGGLVQPGGSLRLSCAVSGFSLSSYGVIWVRQAPGKGLEYVSWVSSGGSTNYASSVKGRFTISRDTSKNTVYLQMNSLRAEDTAVYFCARGATNSGTDIWGPGTLVTVSSGKPGSGKPGSGKPGSGKPGSDIVMTQSPSSLSASVGDRVTITCRASQSINSWLSWYQQKPGKPPKLLIYGASNLASGVPSRFKGSGSGTDFTLTISSLQPEDFATYYCQNNYGIIAAGATFGGGTKVEIKEPKSSDKTHTCPPCPAPELLGGPDVFLFPPKPKDTLMISRTPEVTCVVVDVSHEDPEVKFNWYVDGVEVHNAKTKPREEQYNSTYRVVSVLTVLHQDWLNGKEYKCKVSNKALPAPEEKTISKAKGQPREPQVYTLPPSREQMTKNQVKLTCLVKGFYPSDIAVEWESNGQPENNYKTTPPVLDSDGSFFLYSKLTVDKSRWQQGNVFSCSVMHEALHNHYTQKSLSLSPGK chain 3: DIVMTQSPSSLSASVGDRVTITCRASQSINSWLSWYQQKPGKPPKLLIYGASNLASGVPSRFKGSGSGTDFTLTISSLQPEDFATYYCQNNYGIIAAGATFGGGTKVEIKRTVAAPSVFIFPPSDEQLKSGTASVVCLLNNFYPREAKVQWKVDNALQSGNSQESVTEQDSKDSTYSLSSTLTLSKADYEKHKVYACEVTHQGLSSPVTKSFNRGEC
2 | 100 | XENP41035 (antibody) chain 1: EVQLLESGGGLVQPGGSLRLSCAVSGFSLSSYGVIWVRQAPGKGLEYVSWVSSGGSTNYASSVKGRFTISRDTSKNTVYLQMNSLRAEDTAVYFCARGATNSGTDIWGPGTLVTVSSASTKGPSVFPLAPSSKSTSGGTAALGCLVKDYFPEPVTVSWNSGALTSGVHTFPAVLQSSGLYSLSSVVTVPSSSLGTQTYICNVNHKPSDTKVDKKVEPKSCDKTHTCPPCPAPELLGGPDVFLFPPKPKDTLMISRTPEVTCVVVDVSHEDPEVKFNWYVDGVEVHNAKTKPREEEYNSTYRVVSVLTVLHQDWLNGKEYKCKVSNKALPAPIEKTISKAKGQPREPQVYTLPPSREEMTKNQVSLTCDVSGFYPSDIAVEWESDGQPENNYKTTPPVLDSDGSFFLYSKLTVDKSRWEQGDVFSCSVMHEALHNHYTQKSLSLSPGK chain 2: EVQLLESGGGLVQPGGSLRLSCAVSGFSLSSYGVIWVRQAPGKGLEYVSWVSSGGSTNYASSVKGRFTISRDTSKNTVYLQMNSLRAEDTAVYFCARGATNSGTDIWGPGTLVTVSSGKPGSGKPGSGKPGSGKPGSDIVMTQSPSSLSASVGDRVTITCRASQSINSWLSWYQQKPGKPPKLLIYGASNLASGVPSRFKGSGSGTDFTLTISSLQPEDFATYYCQNNYGIIAAGATFGGGTKVEIKEPKSSDKTHTCPPCPAPELLGGPSVFLFPPKPKDTLMISRTPEVTCVVVDVSHEDPEVKFNWYVDGVEVHNAKTKPREEQYNSTYRVVSVLTVLHQDWLNGKEYKCKVSNKALPAPEEKTISKAKGQPREPQVYTLPPSREQMTKNQVKLTCLVKGFYPSDIAVEWESNGQPENNYKTTPPVLDSDGSFFLYSKLTVDKSRWQQGNVFSCSVMHEALHNHYTQKSLSLSPGK chain 3: DIVMTQSPSSLSASVGDRVTITCRASQSINSWLSWYQQKPGKPPKLLIYGASNLASGVPSRFKGSGSGTDFTLTISSLQPEDFATYYCQNNYGIIAAGATFGGGTKVEIKRTVAAPSVFIFPPSDEQLKSGTASVVCLLNNFYPREAKVQWKVDNALQSGNSQESVTEQDSKDSTYSLSSTLTLSKADYEKHKVYACEVTHQGLSSPVTKSFNRGEC

Second part, the binder before the results:

Row | Binder | Kd [nM]
3 | XENP41030 (antibody) chain 1: EVQLLESGGGLVQPGGSLRLSCAVSGFSLSSYGVIWVRQAPGKGLEYVSWVSSGGSTNYASSVKGRFTISRDTSKNTVYLQMNSLRAEDTAVYFCARGATNSGTDIWGPGTLVTVSSASTKGPSVFPLAPSSKSTSGGTAALGCLVKDYFPEPVTVSWNSGALTSGVHTFPAVLQSSGLYSLSSVVTVPSSSLGTQTYICNVNHKPSDTKVDKKVEPKSCDKTHTCPPCPAPELLGGPSVFLFPPKPKDTLMISRTPEVTCVVVDVSHEDPEVKFNWYVDGVEVHNAKTKPREEEYNSTYRVVSVLTVLHQDWLNGKEYKCKVSNKALPAPEEKTISKAKGQPREPQVYTLPPSREEMTKNQVSLTCDVSGFYPSDIAVEWESDGQPENNYKTTPPVLDSDGSFFLYSKLTVDKSRWEQGDVFSCSVMHEALHNHYTQKSLSLSPGK chain 2: not shown chain 3: DIVMTQSPSSLSASVGDRVTITCRASQSINSWLSWYQQKPGKPPKLLIYGASNLASGVPSRFKGSGSGTDFTLTISSLQPEDFATYYCQNNYGIIAAGATFGGGTKVEIKRTVAAPSVFIFPPSDEQLKSGTASVVCLLNNFYPREAKVQWKVDNALQSGNSQESVTEQDSKDSTYSLSSTLTLSKADYEKHKVYACEVTHQGLSSPVTKSFNRGEC | 203
4 | XENP41028 (antibody) chain 1: EVQLLESGGGLVQPGGSLRLSCAVSGFSLSSYGVIWVRQAPGKGLEYVSWVSSGGSTNYASSVKGRFTISRDTSKNTVYLQMNSLRAEDTAVYFCARGATNSGTDIWGPGTLVTVSSASTKGPSVFPLAPSSKSTSGGTAALGCLVKDYFPEPVTVSWNSGALTSGVHTFPAVLQSSGLYSLSSVVTVPSSSLGTQTYICNVNHKPSDTKVDKKVEPKSCDKTHTCPPCPAPELLGGPDVFLFPPKPKDTLMISRTPEVTCVVVDVSHEDPEVKFNWYVDGVEVHNAKTKPREEEYNSTYRVVSVLTVLHQDWLNGKEYKCKVSNKALPAPEEKTISKAKGQPREPQVYTLPPSREEMTKNQVSLTCDVSGFYPSDIAVEWESDGQPENNYKTTPPVLDSDGSFFLYSKLTVDKSRWEQGDVFSCSVMHEALHNHYTQKSLSLSPGK chain 2: not shown chain 3: DIVMTQSPSSLSASVGDRVTITCRASQSINSWLSWYQQKPGKPPKLLIYGASNLASGVPSRFKGSGSGTDFTLTISSLQPEDFATYYCQNNYGIIAAGATFGGGTKVEIKRTVAAPSVFIFPPSDEQLKSGTASVVCLLNNFYPREAKVQWKVDNALQSGNSQESVTEQDSKDSTYSLSSTLTLSKADYEKHKVYACEVTHQGLSSPVTKSFNRGEC | 120
